Earlier results as cited in publication PMC12475976.
pKd: −log10 of the molar value.

Molecular target: SREBF1 (Homo sapiens) (UniProt P36956)
Sequence (P36956 whole entry): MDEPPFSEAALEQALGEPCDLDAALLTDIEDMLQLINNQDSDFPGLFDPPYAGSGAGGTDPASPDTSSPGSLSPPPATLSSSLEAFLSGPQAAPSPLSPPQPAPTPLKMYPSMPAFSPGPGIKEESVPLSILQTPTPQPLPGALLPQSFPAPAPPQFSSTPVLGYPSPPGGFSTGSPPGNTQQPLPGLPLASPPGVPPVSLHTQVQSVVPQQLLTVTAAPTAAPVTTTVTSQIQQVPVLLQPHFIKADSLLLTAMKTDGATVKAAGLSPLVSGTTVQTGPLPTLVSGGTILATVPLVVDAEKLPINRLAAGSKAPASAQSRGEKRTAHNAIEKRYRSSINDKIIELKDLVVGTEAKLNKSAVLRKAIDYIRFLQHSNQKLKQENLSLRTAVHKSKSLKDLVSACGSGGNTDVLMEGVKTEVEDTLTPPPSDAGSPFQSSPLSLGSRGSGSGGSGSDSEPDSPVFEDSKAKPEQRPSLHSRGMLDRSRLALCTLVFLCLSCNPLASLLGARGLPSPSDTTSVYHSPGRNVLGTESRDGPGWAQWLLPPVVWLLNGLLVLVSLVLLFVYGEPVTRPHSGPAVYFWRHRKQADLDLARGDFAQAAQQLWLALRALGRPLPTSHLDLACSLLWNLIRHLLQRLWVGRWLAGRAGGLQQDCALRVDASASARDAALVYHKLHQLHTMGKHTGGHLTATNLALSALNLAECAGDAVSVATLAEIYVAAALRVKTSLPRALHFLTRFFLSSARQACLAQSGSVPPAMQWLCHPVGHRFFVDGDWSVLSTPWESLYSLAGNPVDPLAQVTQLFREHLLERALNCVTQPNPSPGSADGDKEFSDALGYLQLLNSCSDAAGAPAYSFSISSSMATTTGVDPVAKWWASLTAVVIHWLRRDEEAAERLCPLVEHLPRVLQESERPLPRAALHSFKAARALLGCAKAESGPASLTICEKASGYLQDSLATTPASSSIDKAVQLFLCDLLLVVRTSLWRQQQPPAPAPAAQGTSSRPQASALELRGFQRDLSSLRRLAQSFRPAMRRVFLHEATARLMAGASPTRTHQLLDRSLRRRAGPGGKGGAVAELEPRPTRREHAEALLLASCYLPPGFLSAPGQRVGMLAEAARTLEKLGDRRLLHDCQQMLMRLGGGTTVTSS

Sequence of Vav2 (P52735 whole entry): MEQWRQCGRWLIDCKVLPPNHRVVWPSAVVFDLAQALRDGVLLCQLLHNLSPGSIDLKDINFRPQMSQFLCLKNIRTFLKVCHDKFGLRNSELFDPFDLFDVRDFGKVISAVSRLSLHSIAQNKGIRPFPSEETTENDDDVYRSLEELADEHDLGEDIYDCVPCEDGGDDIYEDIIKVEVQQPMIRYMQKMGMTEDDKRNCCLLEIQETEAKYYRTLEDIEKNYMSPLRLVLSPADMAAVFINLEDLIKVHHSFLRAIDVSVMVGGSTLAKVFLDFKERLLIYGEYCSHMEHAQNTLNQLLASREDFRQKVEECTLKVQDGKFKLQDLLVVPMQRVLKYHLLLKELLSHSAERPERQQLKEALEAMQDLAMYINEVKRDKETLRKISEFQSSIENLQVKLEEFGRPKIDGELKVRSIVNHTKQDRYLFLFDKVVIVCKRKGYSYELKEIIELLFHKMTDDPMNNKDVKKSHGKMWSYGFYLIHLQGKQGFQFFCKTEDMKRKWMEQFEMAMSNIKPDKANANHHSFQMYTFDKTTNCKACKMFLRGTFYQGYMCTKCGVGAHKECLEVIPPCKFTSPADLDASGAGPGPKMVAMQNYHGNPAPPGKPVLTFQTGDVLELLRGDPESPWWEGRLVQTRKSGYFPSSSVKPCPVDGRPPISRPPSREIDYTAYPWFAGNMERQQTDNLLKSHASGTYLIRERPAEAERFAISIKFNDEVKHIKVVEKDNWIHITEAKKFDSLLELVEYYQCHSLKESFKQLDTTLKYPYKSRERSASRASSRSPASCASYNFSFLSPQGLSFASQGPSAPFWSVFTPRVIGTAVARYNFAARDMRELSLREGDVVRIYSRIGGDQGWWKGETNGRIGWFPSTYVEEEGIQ

pKd: 8.08
Substance: Vav2 (from UniProt P52735)
